Laboratory results taken from paper PMC11633051, “Streptococcus pneumoniae GAPN is a key metabolic player necessary for host infection” (Protein Science : A Publication of the Protein Society, 2024).
Like-named read-outs stand apart in the source and are kept apart here.

Experiments:
S. pneumoniae GAPN [1] = molecular target: T1, S. pneumoniae GAPN (Streptococcus pneumoniae, UniProt A0A0H2ZNN4); test: UV kinetics at […] nm, varied G3P with fixed E4P ([…]); format: biochemical
T1 construct: N-terminal 6xHis tag, pET21b (NdeI), E. coli BL21(DE3); tag removal not mentioned; homotetramer; catalytic C283

S. pneumoniae GAPN [2] = molecular target: T1, S. pneumoniae GAPN; test: isothermal titration calorimetry; format: binding
O=C[C@H](O)COP(=O)(O)O = test: purified protein; details: pH 7.5, 25°C, 1.0 mM NADP+, 40 nM GAPN
[3] = test system: NC(=O)c1ccc[n+]([C@@H]2O[C@H](COP(=O)(O)OP(=O)(O)OC[C@H]3O[C@@H](n4cnc5c(N)ncnc54)[C@H](O)[C@@H]3O)[C@@H](O)[C@H]2O)c1; test: purified protein; details: pH 8.5, 25°C, 1.0 mM G3P (Figure 2 legend says 500 μM), 20 μM GAPN, varied: cofactor
[4] = test system: NC(=O)c1ccc[n+]([C@@H]2O[C@H](COP(=O)(O)OP(=O)(O)OC[C@H]3O[C@@H](n4cnc5c(N)ncnc54)[C@H](OP(=O)(O)O)[C@@H]3O)[C@@H](O)[C@H]2O)c1; test: purified protein; details: pH 7.5, 25°C, 1.0 mM G3P, 40 nM GAPN, varied: cofactor
[5] = molecular target: the molecule itself; test: cryo-EM structure; purified GAPN at 90 uM in 50 mM HEPES pH 7.5, 50 mM NaCl, 2 mM DTT; alone (apo), with 1 mM NADP+ (holo) or with 1 mM G3P; single particle reconstruction

`O=C[C@H](O)[C@H](O)COP(=O)(O)O` [E4P] showed a Ki (S. pneumoniae GAPN [1]) of 25.7 ± 7.2 µM.

For `O=C[C@H](O)COP(=O)(O)O` [G3P], the Kd (S. pneumoniae GAPN [2]; read-out: K D) was 0.053 ± 0.036 µM.

In the case of `NC(=O)c1ccc[n+]([C@@H]2O[C@H](COP(=O)(O)OP(=O)(O)OC[C@H]3O[C@@H](n4cnc5c(N)ncnc54)[C@H](OP(=O)(O)O)[C@@H]3O)[C@@H](O)[C@H]2O)c1` [NADP^+], the Kd (S. pneumoniae GAPN [2]) is reported as 51 ± 32 µM.

Molecule “S. pneumoniae GAPN (Streptococcus pneumoniae D39)” has a Km (O=C[C@H](O)COP(=O)(O)O) of 88 ± 17 µM, a Vmax (O=C[C@H](O)COP(=O)(O)O) of 580 ± 30 nM/s and a kcat (O=C[C@H](O)COP(=O)(O)O) of 14.5 ± 0.7 s⁻¹. For the same molecule, the Km [3] was 7200 ± 2000 µM, the kcat [3] was 0.4 ± 0.1 s⁻¹ and the Km [4] was 119 ± 12 µM. It also gave a Vmax [4] of 570 ± 20 nM/s and a kcat [4] of 14.2 ± 0.6 s⁻¹.

B1: Streptococcus pneumoniae GAPN (non-phosphorylating glyceraldehyde-3-phosphate dehydrogenase) (enzyme, S. pneumoniae strain D39)
chain: MTRYQNLVNGKWKSSEQEITIYSPINQEELGTVPAMTQTEADEAMQAARAALPAWRALSAIERAAYLHKTAAILERDKEKIGTILAKEVAKGIKAAIGEVVRTADLIRYAAEEGLRITGQAMEGGGFEAASKNKLAVVRREPVGIVLAIAPFNYPVNLSASKIAPALIAGNVVMLKPPTQGSISGLLLAKAFEEAGIPAGVFNTITGRGSEIGDYIIEHKEVNFINFTGSTPIGERIGRLAGMRPIMLELGGKDAALVLEDADLEHAAKQIVAGAFSYSGQRCTAIKRVIVLESVADKLATLLQEEVSKLTVGDPFDNADITPVIDNASADFIWGLIEDAQEKEAQALTPIKREGNLLWPVLFDQVTKDMKVAWEEPFGPVLPIIRVASVEEAIAFANESEFGLQSSVFTNDFKKAFEIAEKLEVGTVHINNKTQRGPDNFPFLGVKGSGAGVQGIKYSIEAMTNVKSIVFDVK
notes: GAPN, non-phosphorylating glyceraldehyde-3-phosphate dehydrogenase of S. pneumoniae strain D39; gapn gene PCR amplified from genomic DNA; UniProt A0A0H2ZNN4_STRP2; The gene was inserted with an N-terminal 6xHis tag into NdeI-cleaved pET21b; Homotetramer in the cryo-EM structures
B1 was tested, and the “stoichiometry N” value [5] was 4.
